Measured values published in patent publication US20080317746A1 (MICROMET, published 2008).
Where a chain is given by its changes, count along the chain named. Read-outs that look alike come from different tables or passages of the source. One block for each binder: values may come before it.

What was measured:
[1] = molecular target: T1, human interleukin-2 (hIL2) (human, UniProt P60568 21-153); assay: FACS on NKL cells loaded with recombinant hIL2
T1 construct: mature; The two home-made supplies carry a C-terminal hexahistidine tag, and the E. coli one also an N-terminal Met; also called recombinant human hIL2; hIL2 antigen

[2] = molecular target: T1, human interleukin-2 (hIL2); assay: cell-based or functional assay
[3] = molecular target: T2, human IL2 receptor on NKL cells (human, UniProt P01589 22-272; P14784 27-551; P31785 23-369); assay: FACS on hIL2-deprived NKL cells without hIL2; fluorescence-labeled goat anti-human IgG detection
T2 construct: whole, on cells; also called hIL2 receptor; IL2 receptor component(s)
T2 sequence (looked up) 1: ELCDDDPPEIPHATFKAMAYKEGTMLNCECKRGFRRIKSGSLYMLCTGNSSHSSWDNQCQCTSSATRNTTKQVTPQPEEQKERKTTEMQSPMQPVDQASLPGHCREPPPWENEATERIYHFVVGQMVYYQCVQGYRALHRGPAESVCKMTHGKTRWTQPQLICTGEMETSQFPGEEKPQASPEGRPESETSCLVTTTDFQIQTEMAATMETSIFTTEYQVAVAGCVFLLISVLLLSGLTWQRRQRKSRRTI
T2 sequence (looked up) 2: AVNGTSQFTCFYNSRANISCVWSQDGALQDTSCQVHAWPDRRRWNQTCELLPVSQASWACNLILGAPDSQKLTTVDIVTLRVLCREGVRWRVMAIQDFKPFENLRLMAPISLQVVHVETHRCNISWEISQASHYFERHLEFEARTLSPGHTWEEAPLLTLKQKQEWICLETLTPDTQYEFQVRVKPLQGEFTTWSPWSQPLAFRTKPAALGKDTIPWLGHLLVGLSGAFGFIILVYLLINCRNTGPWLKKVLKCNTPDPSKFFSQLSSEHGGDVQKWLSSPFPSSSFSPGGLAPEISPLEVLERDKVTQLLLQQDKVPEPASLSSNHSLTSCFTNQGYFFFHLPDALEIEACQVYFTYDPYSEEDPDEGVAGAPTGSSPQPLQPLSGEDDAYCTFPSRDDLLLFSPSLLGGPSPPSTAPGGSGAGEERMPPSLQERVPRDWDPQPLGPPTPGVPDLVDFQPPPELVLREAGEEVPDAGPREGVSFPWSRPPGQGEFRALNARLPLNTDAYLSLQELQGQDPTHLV
T2 sequence (looked up) 3: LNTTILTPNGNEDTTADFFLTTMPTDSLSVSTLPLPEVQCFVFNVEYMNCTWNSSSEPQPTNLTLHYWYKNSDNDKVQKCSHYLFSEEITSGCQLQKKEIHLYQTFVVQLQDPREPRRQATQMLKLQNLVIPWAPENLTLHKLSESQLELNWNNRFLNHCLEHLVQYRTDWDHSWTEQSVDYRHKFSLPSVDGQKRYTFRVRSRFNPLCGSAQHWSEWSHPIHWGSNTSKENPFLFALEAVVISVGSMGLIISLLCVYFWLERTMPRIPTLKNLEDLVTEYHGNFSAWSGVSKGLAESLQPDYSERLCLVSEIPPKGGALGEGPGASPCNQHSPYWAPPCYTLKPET

[4] = molecular target: T1, human interleukin-2 (hIL2); assay: BiaCore, format not described
[5] = molecular target: T1, human interleukin-2 (hIL2); assay: Cell Surface (binding to cell surface-associated hIL2), method not described; Cell Surface, not BiaCore
[6] = molecular target: T1, human interleukin-2 (hIL2); assay: cell-based or functional assay; remark: listed apart in the source
[7] = molecular target: T3, Proleukin (formulated recombinant hIL2, expressed in E. coli), PEG-biotinylated (human, UniProt P60568 22-153, PEG-biotinylated (site not stated)); assay: ELISA: PEG-biotinylated Proleukin on streptavidin plate, 293 cell supernatant antibody, anti-human IgG-HRP, ABTS, absorbance at 405 nm
T3 construct: also called PEG-biotinylated Proleukin; hIL2 antigen

[8] = molecular target: T3, Proleukin (formulated recombinant hIL2, …); assay: as above; remark: listed apart in the source
[9] = molecular target: T3, Proleukin (formulated recombinant hIL2, …); assay: as above; remark: listed apart in the source

T1 sequence (P60568 21-153): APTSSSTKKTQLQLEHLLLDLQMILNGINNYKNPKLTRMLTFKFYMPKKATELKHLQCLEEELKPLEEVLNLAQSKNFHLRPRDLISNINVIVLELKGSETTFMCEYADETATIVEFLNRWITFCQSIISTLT

B1: mAb202 (commercially available from R&D Systems) (antibody, V domains shown)
VH: DVRLVESGGGLVKPGGSLKLSCAAYGFTFSSYTLAWVRQTPEKRLEWVAAIDSSSYTYSPDTVRGRFTISRDNAKNTLYLQMSSLKSEDTAMYYCTRDSNWDALDYWGQGTSVIVSS
VL: DIVMTQSQKFMSTSVGDRVSVTCKASQNVGTNVGWYQQKPGQSPKALIYSASFRYSGVPDRFTGSGSGTDFSLTISNVKSEDLAEYFCQQYYTYPYTFGGGTKLEIK
notes: Mouse monoclonal antibody; also called original mAb; parental mAb202
binding result [1]: binds

B2: Anti-IL2 (humanized anti-IL2 IgG1 antibody) (antibody, V domains shown)
VH: EVQLVESGGGLVQPGGSLRLSCAASGFTFSSYTLAWVRQAPGKGLEWVAAIDSSSYTYSPDTVRGRFTISRDNAKNSLYLQMNSLRAEDTAVYYCARDSNWDALDYWGQGTTVTVSS
VL: DIQMTQSPSSLSASVGDRVTITCKASQNVGTNVGWYQQKPGKAPKALIYSASFRYSGVPSRFSGSGSGTDFTLTISSLQPEDFATYYCQQYYTYPYTFGGGTKVEIKR
notes: IgG1; Its VL carries KAPKA in framework 2
IC50, IL2-dependent proliferation of primary human NK cells (donor shown) [2]: ~0.3 nM
IC50 of IL2-dependent CD124 cell surface expression on CTLL-2 cells [2]: ~0.33 nM
binding result [3]: no binding
Kd [4]: 0.68 nM
Kd [5]: 2.5 nM
IC50, IFN-gamma production by Human NK Cells [6]: 0.13 nM
IC50, Proliferation of Human Primary NK Cells [6]: 0.1 nM

B3: MHM + hHC (VL with human framework 2, mouse frameworks 1 and 3) (antibody, human IgG1, V domains shown)
VH: B2 VH
VL: B1 VL with Q42K, S43A, A46L
notes: Human IgG1 and human Ckappa
EC50 (read off the curve) [7]: ~0.06 µg/mL

B4: HMH + hHC (VL with human frameworks 1 and 3, mouse framework 2) (antibody, V domains shown)
VH: B2 VH
VL: DIQMTQSPSSLSASVGDRVTITCKASQNVGTNVGWYQQKPGQSPKALIYSASFRYSGVPSRFSGSGSGTDFTLTISSLQPEDFATYYCQQYYTYPYTFGGGTKLEIK
notes: Human IgG1 and human Ckappa
EC50 (read off the curve) [7]: ~0.06 µg/mL

B6: MMH + hHC (VL with human framework 3, mouse frameworks 1 and 2) (antibody, V domains shown)
VH: B2 VH
VL: B4 VL with Q3V, P8Q, S9K, S10F, L11M, A13T, T20S, I21V
notes: Human IgG1 and human Ckappa
EC50 (read off the curve) [7]: ~0.06 µg/mL

B8: HMM + hHC (VL with human framework 1, mouse frameworks 2 and 3) (antibody, V domains shown)
VH: B2 VH
VL: B1 VL with V3Q, Q8P, K9S, F10S, M11L, T13A, S20T, V21I
notes: Human IgG1 and human Ckappa
EC50 (read off the curve) [7]: ~0.06 µg/mL

The next lines start with the values.

EC50 (read off the curve) [8]: ~0.1 µg/mL
B5: cLC + hHC (chimeric light chain with humanized heavy chain) (antibody, human IgG1, V domains shown)
VH: B2 VH
VL: B1 VL
notes: Human IgG1 C1, C2, C3 and human Ckappa; Tested as 293 cell supernatant; also called cLH+hHC

EC50 (read off the curve) [9]: ~0.05 µg/mL
B7: hLC_KAPKA + hHC (antibody, V domains shown)
VH: B2 VH
VL: B4 VL with Q42K, S43A, L104V
notes: Human IgG1 and human Ckappa

EC50 (read off the curve) [8]: ~0.2 µg/mL
B9: hLC + hHC (humanized light chain with humanized heavy chain) (antibody, human IgG1, V domains shown)
VH: B2 VH
VL: B4 VL with Q42K, S43A, A46L, L104V
notes: Human IgG1 C1, C2, C3 and human Ckappa; Tested as 293 cell supernatant; also called hLH+hHC
